T1: FcγRIIb (human, UniProt P31994 43-217)
T1 construct: extracellular domain; Soluble extracellular domain with C-terminal His tag, used as analyte in Biacore; also called FcgRIIb; 2b; not shown: His tag attached to the C terminus
T1 sequence (looked up): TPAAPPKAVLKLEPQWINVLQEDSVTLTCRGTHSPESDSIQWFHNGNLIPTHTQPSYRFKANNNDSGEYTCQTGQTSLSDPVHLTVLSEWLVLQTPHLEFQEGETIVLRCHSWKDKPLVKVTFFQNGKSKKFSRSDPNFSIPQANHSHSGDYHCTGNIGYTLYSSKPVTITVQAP

T2: FcγRIIa R (human, UniProt P12318 34-217)
T2 construct: extracellular domain; Soluble extracellular domain with C-terminal His tag, expressed in FreeStyle293 cells; also called FcgRIIa R; FcγRIIa type R; not shown: His tag attached to the C terminus
T2 sequence (looked up): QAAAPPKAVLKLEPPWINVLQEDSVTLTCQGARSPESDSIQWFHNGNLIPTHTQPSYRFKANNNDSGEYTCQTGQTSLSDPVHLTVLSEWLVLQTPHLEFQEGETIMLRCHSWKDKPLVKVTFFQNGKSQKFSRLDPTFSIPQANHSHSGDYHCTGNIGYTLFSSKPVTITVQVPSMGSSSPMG

B1: GpH7-A5/GpH7-B3 variant G237_02A/GpL16-k0 (antibody, human IgG1, kappa)
heavy 1: not shown
heavy 2: not shown
light: DIVMTQSPLSLPVTPGEPASISCQASESLVHSNRNTYLHWYLQKPGQSPQLLIYKVSNRFSGVPDRFSGSGSGTDFTLKISRVEAEDVGVYYCSQNTHVPPTFGQGTKVEIERTVAAPSVFIFPPSDEQLKSGTASVVCLLNNFYPREAKVQWKVDNALQSGNSQESVTEQDSKDSTYSLSSTLTLSKADYEKHKVYACEVTHQGLSSPVTKSFNRGEC
notes: Heterodimerized IgG1; mutation in the GpH7-B3 H chain only; also called He Ab
B2: GpH7-A5/GpH7-B3 variant L235_15Y/GpL16-k0 (antibody, human IgG1, kappa)
heavy 1: not shown
heavy 2: not shown
light: B1 light
notes: as for B1
B3: GpH7-A5/GpH7-B3 variant L235_09D/GpL16-k0 (antibody, human IgG1, kappa)
heavy 1: not shown
heavy 2: not shown
light: B1 light
notes: as for B1
B4: GpH7-A5/GpH7-B3 variant G237_20W/GpL16-k0 (antibody, human IgG1, kappa)
heavy 1: not shown
heavy 2: not shown
light: B1 light
notes: as for B1
B5: GpH7-A5/GpH7-B3 variant H268_02A/GpL16-k0 (antibody, human IgG1, kappa)
heavy 1: not shown
heavy 2: not shown
light: B1 light
notes: as for B1
B6: GpH7-A5/GpH7-B3 variant P238_06M/GpL16-k0 (antibody, human IgG1, kappa)
heavy 1: not shown
heavy 2: not shown
light: B1 light
notes: as for B1
B7: GpH7-A5/GpH7-B3 variant L235_20W/GpL16-k0 (antibody, human IgG1, kappa)
heavy 1: not shown
heavy 2: not shown
light: B1 light
notes: as for B1
B8: GpH7-A5/GpH7-B3 variant G237_15Y/GpL16-k0 (antibody, human IgG1, kappa)
heavy 1: not shown
heavy 2: not shown
light: B1 light
notes: as for B1
B9: GpH7-A5/GpH7-B3 variant G237_19Q/GpL16-k0 (antibody, human IgG1, kappa)
heavy 1: not shown
heavy 2: not shown
light: B1 light
notes: as for B1
B10: GpH7-A5/GpH7-B3 variant L234_09D/GpL16-k0 (antibody, human IgG1, kappa)
heavy 1: not shown
heavy 2: not shown
light: B1 light
notes: as for B1
B11: GpH7-A5/GpH7-B3 variant G236_09D/GpL16-k0 (antibody, human IgG1, kappa)
heavy 1: not shown
heavy 2: not shown
light: B1 light
notes: as for B1
B12: GpH7-A5/GpH7-B3 variant H268_09D/GpL16-k0 (antibody, human IgG1, kappa)
heavy 1: not shown
heavy 2: not shown
light: B1 light
notes: as for B1
B13: GpH7-A5/GpH7-B3 variant P238_04F/GpL16-k0 (antibody, human IgG1, kappa)
heavy 1: not shown
heavy 2: not shown
light: B1 light
notes: as for B1
B14: GpH7-A5/GpH7-B3 variant G237_04F/GpL16-k0 (antibody, human IgG1, kappa)
heavy 1: not shown
heavy 2: not shown
light: B1 light
notes: as for B1
B15: GpH7-A5/GpH7-B3 variant G237_18N/GpL16-k0 (antibody, human IgG1, kappa)
heavy 1: not shown
heavy 2: not shown
light: B1 light
notes: as for B1
B16: GpH7-A5/GpH7-B3 variant G237_10E/GpL16-k0 (antibody, human IgG1, kappa)
heavy 1: not shown
heavy 2: not shown
light: B1 light
notes: as for B1
B17: GpH7-A5/GpH7-B3 variant P238_08L/GpL16-k0 (antibody, human IgG1, kappa)
heavy 1: not shown
heavy 2: not shown
light: B1 light
notes: as for B1
B18: GpH7-A5/GpH7-B3 variant P238_09D/GpL16-k0 (antibody, human IgG1, kappa)
heavy 1: not shown
heavy 2: not shown
light: B1 light
notes: as for B1
B19: GpH7-A5/GpH7-B3 variant G237_08L/GpL16-k0 (antibody, human IgG1, kappa)
heavy 1: not shown
heavy 2: not shown
light: B1 light
notes: as for B1
B20: GpH7-A5/GpH7-B3 variant H268_01G/GpL16-k0 (antibody, human IgG1, kappa)
heavy 1: not shown
heavy 2: not shown
light: B1 light
notes: as for B1
B21: GpH7-A5/GpH7-B3 variant G237_09D/GpL16-k0 (antibody, human IgG1, kappa)
heavy 1: not shown
heavy 2: not shown
light: B1 light
notes: as for B1
B22: GpH7-A5/GpH7-B3 variant G237_06M/GpL16-k0 (antibody, human IgG1, kappa)
heavy 1: not shown
heavy 2: not shown
light: B1 light
notes: as for B1
B23: GpH7-A5/GpH7-B3 variant Y300_04F/GpL16-k0 (antibody, human IgG1, kappa)
heavy 1: not shown
heavy 2: not shown
light: B1 light
notes: heterodimerized; mutation in one H chain only; also called He Ab
B24: GpH7-A5/GpH7-B3 variant T335_16H/GpL16-k0 (antibody, human IgG1, kappa)
heavy 1: not shown
heavy 2: not shown
light: B1 light
notes: as for B23
B25: GpH7-A5/GpH7-B3 variant T335_09D/GpL16-k0 (antibody, human IgG1, kappa)
heavy 1: not shown
heavy 2: not shown
light: B1 light
notes: as for B23
B26: GpH7-A5/GpH7-B3 variant Y296_20W/GpL16-k0 (antibody, human IgG1, kappa)
heavy 1: not shown
heavy 2: not shown
light: B1 light
notes: as for B23
B27: GpH7-A5/GpH7-B3 variant T335_20W/GpL16-k0 (antibody, human IgG1, kappa)
heavy 1: not shown
heavy 2: not shown
light: B1 light
notes: as for B23
B28: GpH7-A5/GpH7-B3 variant T335_19Q/GpL16-k0 (antibody, human IgG1, kappa)
heavy 1: not shown
heavy 2: not shown
light: B1 light
notes: as for B23
B29: GpH7-A5/GpH7-B3 variant V266_06M/GpL16-k0 (antibody, human IgG1, kappa)
heavy 1: not shown
heavy 2: not shown
light: B1 light
notes: as for B23
B30: GpH7-A5/GpH7-B3 variant T335_18N/GpL16-k0 (antibody, human IgG1, kappa)
heavy 1: not shown
heavy 2: not shown
light: B1 light
notes: as for B23

In one experiment the target is T1, FcγRIIb. The experiment can be described thus: SPR (Biacore), antibody captured on antigen peptide, FcγR as analyte; relative to GpH7-A5/GpH7-B3/GpL16-k0 = 100. (In SPR one partner is held on a chip, and binding of the other changes the refractive index at the surface.)
Turning to B1, the He/Con_2b was 124 % of control.
As to B2, the He/Con_2b is 149 % of control.
Turning to B3, the He/Con_2b was 106 % of control.
On the same count and under the same terms, the same measure for B4: 193 % of control; for B5: 167 % of control.
Same read-out and setting: then B6, with 174 % of control; and B7, with 147 % of control; and B8, with 152 % of control.
Turning to B9, the He/Con_2b was 108 % of control.
For B10, the He/Con_2b is 150 % of control.
Consider B11, for which the He/Con_2b was 167 % of control.
B12: the He/Con_2b is 239 % of control.
The same measure, in the same setting: then B13, with 312 % of control.
The same measure, in the same setting: the same measure for B14: 149 % of control; for B15: 180 % of control.
On the same count and under the same terms, then B16, with 114 % of control; and B17, with 204 % of control.
With B18, the He/Con_2b is 221 % of control.
B19: the He/Con_2b was 148 % of control.
Consider B20, for which the He/Con_2b is 144 % of control.
Still for that read-out and setting: then B21, with 223 % of control; and B22, with 130 % of control.

In the next experiment the target is T3, FcγRIa (human, UniProt P12314 16-292).
T3 construct: extracellular domain; Soluble extracellular domain with C-terminal His tag, used as analyte in Biacore; also called FcgRI; 1a; not shown: His tag attached to the C terminus
T3 sequence (P12314 16-292): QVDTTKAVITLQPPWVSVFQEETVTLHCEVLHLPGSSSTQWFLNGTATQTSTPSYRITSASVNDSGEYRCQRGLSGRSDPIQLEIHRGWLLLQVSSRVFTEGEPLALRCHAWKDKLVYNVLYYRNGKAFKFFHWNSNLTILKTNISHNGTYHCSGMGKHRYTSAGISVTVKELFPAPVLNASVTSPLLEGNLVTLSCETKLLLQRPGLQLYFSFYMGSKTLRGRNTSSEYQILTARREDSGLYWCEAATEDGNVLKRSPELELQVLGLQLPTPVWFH
The description is as above.
In the case of B1, the He/Con_1a is 90.3 % of control.
Take B2: the He/Con_1a was 97.1 % of control.
Consider B3, for which the He/Con_1a is 84.8 % of control.
For B4, the He/Con_1a is 78.4 % of control.
Same read-out and setting: the same measure for B5: 109 % of control.
As for B6, the He/Con_1a is 102 % of control.
B7: the He/Con_1a was 92.8 % of control.
B8: the He/Con_1a was 79.6 % of control.
With B9, the He/Con_1a is 82.8 % of control.
In the case of B10, the He/Con_1a is 97.8 % of control.
For B11, the He/Con_1a is 96.6 % of control.
As to B12, the He/Con_1a is 110 % of control.
Regarding B13, the He/Con_1a is 101 % of control.
As for B14, the He/Con_1a was 81.5 % of control.
Take B15: the He/Con_1a was 82.5 % of control.
On the same count and under the same terms, the same measure for B16: 75.1 % of control; for B17: 101 % of control; for B18: 96 % of control.
For the molecule B19, the He/Con_1a is 79.6 % of control.
Regarding B20, the He/Con_1a is 107 % of control.
Turning to B21, the He/Con_1a was 84 % of control.
B22: the He/Con_1a was 81.6 % of control.

The target in a further experiment is T3, FcγRIa. The experiment can be described thus: SPR (Biacore); He/Con_1a divided by He/Con_2b (FcγRIa against FcγRIIb).
In the case of B1, the “Ia/IIb He_1a/2b” value turned out to be 0.73 ratio.
Still for that read-out and setting: then B2, with 0.65 ratio.
With B3, the “Ia/IIb He_1a/2b” value stood at 0.8 ratio.
Regarding B4, the “Ia/IIb He_1a/2b” value was 0.41 ratio.
Consider B5, for which the “Ia/IIb He_1a/2b” value came out at 0.65 ratio.
Regarding B6, the “Ia/IIb He_1a/2b” value turned out to be 0.59 ratio.
For B7, the “Ia/IIb He_1a/2b” value turned out to be 0.63 ratio.
Same read-out and setting: the same measure for B8: 0.52 ratio.
As to B9, the “Ia/IIb He_1a/2b” value was 0.77 ratio.
For the molecule B10, the “Ia/IIb He_1a/2b” value stood at 0.65 ratio.
For the molecule B11, the “Ia/IIb He_1a/2b” value was 0.58 ratio.
In the case of B12, the “Ia/IIb He_1a/2b” value came to 0.46 ratio.
On to B13, for which the “Ia/IIb He_1a/2b” value was determined as 0.32 ratio.
Consider B14, for which the “Ia/IIb He_1a/2b” value turned out to be 0.55 ratio.
On the same count and under the same terms, the same measure for B15: 0.46 ratio.
The same measure, in the same setting: the same measure for B16: 0.66 ratio.
As to B17, the “Ia/IIb He_1a/2b” value was 0.49 ratio.
Take B18: the “Ia/IIb He_1a/2b” value worked out at 0.43 ratio.
For B19, the “Ia/IIb He_1a/2b” value is 0.54 ratio.
For B20, the “Ia/IIb He_1a/2b” value amounted to 0.75 ratio.
The same measure, in the same setting: then B21, with 0.38 ratio.
Turning to B22, the “Ia/IIb He_1a/2b” value was determined as 0.63 ratio.

A further experiment has as its target T2, FcγRIIa R. The experiment can be described thus: SPR (Biacore), antibody captured via antigen peptide, FcγRIIa R as analyte; heterodimerized antibody. Here is the method:
Analysis of interaction between objective antibody and the FcγR was carried out using Biacore T100 (GE Healthcare). HBS-EP+ (GE Healthcare) was used as the running buffer, and the measurement temperature was set to 25° C. Chips produced by immobilizing the antigen peptide by the amine coupling method to a Series S Sencor Chip CM5 (GE Healthcare), or alternatively, chips produced by allowing preliminarily biotinylated antigen peptides to interact with and immobilize onto a Series S Sensor Chip SA (certified) (GE Healthcare) were used. Antibodies of interest were captured onto an antigen peptide-immobilized chip, and allowed to interact to each FcγR diluted with running buffer. To regenerate and repeatedly use the chip, the antibodies captured on the chip were washed off by reacting 10 mM glycine-HCl, pH 1.5.
Turning to B23, the He/Con_2aR was 108 % of control (GpH7-A5/GpH7-B3/GpL16-k0 = 100).
For B24, the He/Con_2aR is 108 % of control (GpH7-A5/GpH7-B3/GpL16-k0 = 100).
For the molecule B25, the He/Con_2aR is 110 % of control (GpH7-A5/GpH7-B3/GpL16-k0 = 100).
The same measure, in the same setting: then B26, with 110 % of control (GpH7-A5/GpH7-B3/GpL16-k0 = 100); and B27, with 109 % of control (GpH7-A5/GpH7-B3/GpL16-k0 = 100).
Regarding B28, the He/Con_2aR is 106 % of control (GpH7-A5/GpH7-B3/GpL16-k0 = 100).
On to B29, for which the He/Con_2aR is 150 % of control (GpH7-A5/GpH7-B3/GpL16-k0 = 100).
Regarding B30, the He/Con_2aR was 106 % of control (GpH7-A5/GpH7-B3/GpL16-k0 = 100).

(Values after patent US20180155451A1 (published 2018).)
